This note sets out measurements from patent publication US20020160975A1, “Conserved XIAP-interaction motif in caspase-9 and Smac/DIABLO for mediating apoptosis” (Thomas Jefferson University, priority 2001, published 2002).

One data set addresses T1, full length XIAP (Homo sapiens, UniProt P98170).
T1 construct: full length XIAP or the isolated BIR3 domain of XIAP; made in house; host or cells: in vitro translation (cell-free)
The experiment in a line: In vitro interaction assay of GST fusion proteins with 35S-labeled XIAP. Conditions: C-terminal GST fusion proteins immobilized onto glutathione-affinity resin. The format is binding. The source says: (§1) The C-terminal GST fusion proteins were expressed in bacteria and then immobilized onto glutathione-affinity resin. […] The caspase-9 deletion mutants used in these studies are represented by bar diagrams above the panel in FIG. 10.

In data set [1] the target is T2, Smac/DIABLO binding to BIR3 (Homo sapiens, UniProt P98170).
T2 construct: Smac-GST was immobilized onto glutathione resin and then incubated with BIR3
Nature of the data set: In vitro binding of BIR3 to immobilized Smac-GST with or without competing peptide. Conditions: 200 μM peptide; Smac-GST immobilized onto glutathione resin.

Data set [2] concerns the target T3, XIAP (Homo sapiens, UniProt P98170).
T3 construct: made in house; host or cells: in vitro translation (cell-free)
The experiment in a line: Cytochrome c-dependent caspase-3 activation in 293T S100 extracts containing XIAP (DEVD-AMC). The note with it: 25, 100 and 500 μM peptide, XIAP 10 nM, cytochrome c and dATP. The format is biochemical. The protocol:
The activity of caspase-3 in the S100 extracts was measured using the peptide substrate DEVD-AMC.

For data set [3], the target named is T4, isolated BIR3 domain of XIAP (Homo sapiens, UniProt P98170).
T4 construct: full length XIAP or the isolated BIR3 domain of XIAP; made in house; host or cells: in vitro translation (cell-free)
The experiment in a line: In vitro interaction assay of GST fusion proteins with 35S-labeled BIR3. The format is binding. The note with it: C-terminal GST fusion proteins immobilized onto glutathione-affinity resin.
Text: as §1

For data set [4], the target named is T5, caspase-9-p12 binding to BIR3 (Homo sapiens, UniProt P98170).
T5 construct: made in house; host or cells: bacteria (GST fusion)
Nature of the data set: In vitro binding of BIR3 to immobilized p12-GST with or without competing peptide. Conditions: 200 μM peptide; p12-GST immobilized onto glutathione resin. As to the method: as §1
The interactions were analyzed as in Example 3.

For data set [5], the target named is T3, XIAP. Nature of the data set: Far Western blot analysis with 35S-labeled XIAP. The format is binding.
Experimental: Recombinant WT caspase-9, E306/D315/D330A, D315/330A, or D315A caspase-9 mutants, p12, p10, or Smac/DIABLO GST-fusion proteins were fractionated by SDS-PAGE and then blotted onto a nitrocellulose membrane using standard Western blotting technique. The proteins on the nitrocellulose membrane were denatured in a buffer (10 mM sodium phosphate pH 7.4, 150 mM sodium chloride, 5 mM magnesium chloride and 1 mM DTT) containing 6 M guanidine-HCl. These proteins were then renatured by gradual reduction of guanidine-HCl to 0.3 M. The membrane was blocked overnight in the same buffer containing 5% non-fat dry milk. The membrane was then probed with ^35S-labeled in vitro translated XIAP in the same buffer with 1% non-fat dry milk. The membrane was washed at least three times and then exposed to X-ray film.
Another data set addresses T6, XIAP-BIR3 (Homo sapiens, UniProt P98170).
T6 construct: purified XIAP-BIR3 (20 nM)
The experiment in a line: DEVD-AMC cleaving activity in caspase-9-depleted S100 extracts with or without XIAP-BIR3. The format is biochemical. The note with it: 10 nM caspase-9 protein; XIAP-BIR3 20 nM; DEVD-AMC 100 μM; 30 minutes. As to the method:
To test for enzymatic activity, caspase-9-depleted S100 extracts (20 μg) from Apaf-1-deficient mouse embryonic fibroblasts were incubated with recombinant Apaf-1, cytochrome c, dATP, and equal amounts (10 nM) of WT caspase-9 or the caspase-9 Δlinker mutant protein in the presence (+) or absence (−) of purified XIAP-BIR3 (20 nM). The reactions were carried out in the presence of the peptide substrate DEVD-AMC (100 μM) for 30 minutes, and substrate cleavage was measured by luminescence spectrometry.
To test for enzymatic activity, caspase-9-depleted S100 extracts (20 μg) from Apaf-1-deficient mouse embryonic fibroblasts were incubated with recombinant Apaf-1, cytochrome c, dATP, and equal amounts (10 nM) of WT caspase-9, caspase-9 AT316, 317SG, or AT316, 317GG mutant proteins in the presence (+) or absence (−) of purified XIAP-BIR3 (20 nM). The reactions were carried out in the presence of the peptide substrate DEVD-AMC (100 μM) for 30 minutes, and substrate cleavage was measured by luminescence spectrometry.

Data set [6] deals with T7, X-linked inhibitor of apoptosis protein (XIAP), full length (UniProt P98170 1-497).
T7 construct: Used as in vitro translated 35S-labeled full length XIAP (pull-down, Far western) or as purified XIAP (holoenzyme experiments); also called full length XIAP; 35S-labeled XIAP
The experiment in a line: gel filtration on Superose 6 and immunoblot of fractions.
Experimental: After incubation, the reaction mixtures were diluted with oligomerization buffer I, and aliquots of each sample (100 μl) were loaded onto a Superose 6 FPLC column.
Samples were then analyzed by SDS-PAGE and autoradiography.

Another data set relates to procaspase-3 C163A. The experiment in a line: Procaspase-3 processing and DEVD-AMC cleavage by caspase-9 reconstituted with Apaf-1. The format is biochemical. The note with it: 20 nM each with purified Apaf-1; cytochrome c and dATP. The protocol:
Procaspase-3 processing assays were generally performed as described in Srinivasula, S. M. et al. J Biol Chem 275:36152-36157, 2000. In this assay, purified recombinant procaspase-3 C163A was incubated with equal amounts of recombinant WT or triple mutant caspase-9 protein (20 nM) in the presence (+) or absence (−) of recombinant Apaf-1 (20 nM). The reaction mixtures were stimulated with cytochrome c (50 ng/μl) and dATP (1 mM), incubated for 0-60 minutes at 30° C., and then analyzed by SDS-PAGE and western blot analysis (FIG. 3).
Caspase-3 enzymatic assays with the tetrapeptide substrate DEVD-AMC were generally performed as described in Srinivasula, S. M. et al. J Biol Chem 275:36152-36157, 2000. In this caspase-3 enzymatic assay, caspase-9-depleted S100 extracts from Apaf-1-deficient mouse embryonic fibroblasts were incubated with equal amounts of recombinant WT and triple mutant caspase-9 proteins together with Apaf-1, cytochrome c and dATP. The controls used in these assays represent WT and triple mutant caspase-9 proteins incubated as above without cytochrome c and dATP. The reactions were carried out in the presence of 100 μM of DEVD-AMC for 0-120 minutes, and substrate cleavage was measured by luminescence spectrometry using a Perkin Elmer Luminescence spectrometer and represented in arbitrary spectrometric units.

Data set [7] has as its target T7, X-linked inhibitor of apoptosis protein …. The experiment in a line: Far western with 35S-labeled XIAP.
Experimental: The proteins on the nitrocellulose membrane were denatured in a buffer (10 mM sodium phosphate pH 7.4, 150 mM sodium chloride, 5 mM magnesium chloride and 1 mM DTT) containing 6 M guanidine-HCl. These proteins were then renatured by gradual reduction of guanidine-HCl to 0.3 M. The membrane was blocked overnight in the same buffer containing 5% non-fat dry milk. […] The membrane was washed at least three times and then exposed to X-ray film.
Data set [8] has as its target T8, E314S mutant BIR3 domain of XIAP (UniProt P98170 238-358, limits assumed).
T8 construct: domain: BIR3; 35S-labeled, in vitro translated
The experiment in a line: GST pull-down of 35S-labeled E314S BIR3.

Ends that are not written are not given here.

T3 sequence (P98170 whole entry): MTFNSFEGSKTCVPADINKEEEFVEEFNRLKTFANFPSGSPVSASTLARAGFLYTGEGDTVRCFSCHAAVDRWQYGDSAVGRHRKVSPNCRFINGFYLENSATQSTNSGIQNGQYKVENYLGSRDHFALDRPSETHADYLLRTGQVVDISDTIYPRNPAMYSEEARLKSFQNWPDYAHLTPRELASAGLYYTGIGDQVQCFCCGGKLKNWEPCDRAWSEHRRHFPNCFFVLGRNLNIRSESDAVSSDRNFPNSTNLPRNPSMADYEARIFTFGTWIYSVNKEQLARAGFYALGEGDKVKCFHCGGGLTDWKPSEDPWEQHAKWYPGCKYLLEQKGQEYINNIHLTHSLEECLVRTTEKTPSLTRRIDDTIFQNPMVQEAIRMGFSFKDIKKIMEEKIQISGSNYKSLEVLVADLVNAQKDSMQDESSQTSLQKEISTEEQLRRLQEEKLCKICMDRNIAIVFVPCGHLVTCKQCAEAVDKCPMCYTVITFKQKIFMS
T7 sequence (P98170 whole entry): as above
T6 sequence (P98170 238-358 limits assumed): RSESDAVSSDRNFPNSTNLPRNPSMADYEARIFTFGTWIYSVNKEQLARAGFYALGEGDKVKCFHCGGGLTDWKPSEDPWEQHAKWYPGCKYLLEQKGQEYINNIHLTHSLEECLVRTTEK
T2 sequence (P98170 238-358 limits assumed): as above
T5 sequence (P98170 238-358 limits assumed): as above
T4 sequence (P98170 238-358 limits assumed): as above
T1 sequence (P98170 whole entry, the tested form may be a part): as the sequence (P98170 whole entry) above

Take ATPFQEGLRTFDQLD [linker peptide]: the “interaction with full length XIAP” value on full length XIAP is recorded as “able to interact”. Further, the “inhibition of Smac/DIABLO binding to BIR3” value in data set [1] is reported as “completely inhibited”. Also, the “promoting caspase-3 activation in XIAP containing extracts” value on XIAP [2] is on record as “as effective in promoting caspase-3 activation as the Smac-N5 or N7 peptides”. For the same molecule, the “interaction with isolated BIR3 domain of XIAP” value in [3] is “able to interact”.

As to AVPIAQK [Smac-N7, AVPIAQK], in [4], the “inhibition of binding of caspase-9-p12 to BIR3” value was “completely inhibited”.

B1: Δlinker: caspase-9 with residues 316 to 330 of SEQ ID NO:1 deleted (protein, listed as Homo sapiens)
chain: MDEADRRLLRRCRLRLVEELQVDQLWDALLSRELFRPHMIEDIQRAGSGSRRDQARQLIIDLETRGSQALPLFISCLEDTGQDMLASFLRTNRQAAKLSKPTLENLTPVVLRPEIRKPEVLRPETPRPVDIGSGGFGDVGALESLRGNADLAYILSMEPCGHCLIINNVNFCRESGLRTRTGSNIDCEKLRRRFSSLHFMVEVKGDLTAKKMVLALLELAQQDHGALDCCVVVILSHGCQASHLQFPGAVYGTDGCPVSVEKIVNIFNGTSCPSLGGKPKLFFIQACGGEQKDHGFEVASTSPEDESPGSNPEPDAISSLPTPSDIFVSYSTFPGFVSWRDPKSGSWYVETLDDIFEQWAHSEDLQSLLLRVANAVSVKGIYKQMPGCFNFLRKKLFFKTS
On to B1, for which the “ability to interact with BIR3 (Far western, FIG. 12B)” value with XIAP [5] (recombinant caspase-9 mutants) is on record as “lost significantly the ability to interact”. For the same molecule, the “enzymatic activity (DEVD-AMC cleaving) in presence of XIAP-BIR3” value in the data set with XIAP-BIR3 is “did not inhibit enzymatic activity, even in the presence of XIAP-BIR3”.

B2: triple mutant procaspase-9 (E306/D315/D330A) (enzyme)
chain: MDEADRRLLRRCRLRLVEELQVDQLWDALLSRELFRPHMIEDIQRAGSGSRRDQARQLIIDLETRGSQALPLFISCLEDTGQDMLASFLRTNRQAAKLSKPTLENLTPVVLRPEIRKPEVLRPETPRPVDIGSGGFGDVGALESLRGNADLAYILSMEPCGHCLIINNVNFCRESGLRTRTGSNIDCEKLRRRFSSLHFMVEVKGDLTAKKMVLALLELAQQDHGALDCCVVVILSHGCQASHLQFPGAVYGTDGCPVSVEKIVNIFNGTSCPSLGGKPKLFFIQACGGEQKDHGFEVASTSPEDASPGSNPEPAATPFQEGLRTFDQLAAISSLPTPSDIFVSYSTFPGFVSWRDPKSGSWYVETLDDIFEQWAHSEDLQSLLLRVANAVSVKGIYKQMPGCFNFLRKKLFFKTS
notes: Unprocessed protein; also called uncleavable caspase-9; mutant caspase-9
With B2, in the data set with XIAP [5] (proteins on nitrocellulose membrane, denatured and renatured), the “binding of XIAP by Far Western” value is “not able to bind”. Also, in data set [6], the binding result is given as “no binding”. Moreover, the “processing procaspase-3 C163A or inducing DEVD-AMC cleavage” value with procaspase-3 C163A was “as efficient as the fully processed WT caspase-9”.

B3: Caspase-9-p12 C-terminal GST fusion protein (residues 316-416 of SEQ ID NO:1) (other, not shown: a dimerising Fc or GST)
chain: ATPFQEGLRTFDQLDAISSLPTPSDIFVSYSTFPGFVSWRDPKSGSWYVETLDDIFEQWAHSEDLQSLLLRVANAVSVKGIYKQMPGCFNFLRKKLFFKTS
notes: also called p12-GST; GST-p12
As for B3, the binding result in [7] was “binds”; in [8] it was “no binding”.
